# Source: paper PMC9576733, “Cryo-EM structures of the translocational binary toxin complex CDTa-bound CDTb-pore from Clostridioides difficile” (Nature Communications, 2022)
# Values joined by “and” are separate entries in the source; they are usually repeats but may differ in a detail not shown here. Identical values can stand only once.
# How the values were obtained:
# [1] = target: CDTb-pore, wild type (chymotrypsin-activated CDTb oligomer) (Clostridioides difficile) (UniProt O32739); test: SPR; CDTb-pore (WT, PSS, SPS) amine-coupled on SPRi-Biochip CS-HD, CDTa injected; room temperature, 50 uL/min; pH 7.4, 10 mM HEPES, 0.15 M NaCl, 1 mM EGTA, 0.005% Surfactant P20 (no calcium); 1:1 model; average of two measurements
# [2] = target: CDTb-pore PSS-loop mutant (NSS > PSS) (Clostridioides difficile) (UniProt O32739); test: as above
# [3] = target: CDTb-pore SPS-loop mutant (NSS > SPS) (Clostridioides difficile) (UniProt O32739); test: as above
# [4] = target: CDTb-pore, wild type (chymotrypsin-activated CDTb oligomer) (Clostridioides difficile) (UniProt O32739); test: SPR; CDTb-pore (WT, PSS, SPS) amine-coupled on SPRi-Biochip CS-HD, CDTa injected; room temperature, 50 uL/min; pH 5.5, 10 mM MES, 0.15 M NaCl, 1 mM EGTA, 0.005% Surfactant P20, 5 mM CaCl2; 1:1 model; average of two measurements
# [5] = target: CDTb-pore PSS-loop mutant (NSS > PSS) (Clostridioides difficile) (UniProt O32739); test: as above
# [6] = target: CDTb-pore SPS-loop mutant (NSS > SPS) (Clostridioides difficile) (UniProt O32739); test: as above
# [7] = target: CDTb-pore, wild type (chymotrypsin-activated CDTb oligomer) (Clostridioides difficile) (UniProt O32739); test: SPR; CDTb-pore (WT, PSS, SPS) amine-coupled on SPRi-Biochip CS-HD, CDTa injected; room temperature, 50 uL/min; pH 5.5, 10 mM MES, 0.15 M NaCl, 1 mM EGTA, 0.005% Surfactant P20 (no calcium); 1:1 model; average of two measurements
# [8] = target: CDTb-pore PSS-loop mutant (NSS > PSS) (Clostridioides difficile) (UniProt O32739); test: as above
# [9] = target: CDTb-pore SPS-loop mutant (NSS > SPS) (Clostridioides difficile) (UniProt O32739); test: as above
# [10] = target: CDTb-pore, wild type (chymotrypsin-activated CDTb oligomer) (Clostridioides difficile) (UniProt O32739); test: SPR; CDTb-pore (WT, PSS, SPS) amine-coupled on SPRi-Biochip CS-HD, CDTa injected; room temperature, 50 uL/min; pH 7.4, 10 mM HEPES, 0.15 M NaCl, 1 mM EGTA, 0.005% Surfactant P20, 5 mM CaCl2; 1:1 model; average of two measurements
# [11] = target: CDTb-pore PSS-loop mutant (NSS > PSS) (Clostridioides difficile) (UniProt O32739); test: as above
# [12] = target: CDTb-pore SPS-loop mutant (NSS > SPS) (Clostridioides difficile) (UniProt O32739); test: as above
# [13] = target: CDTb-pore, wild type (chymotrypsin-activated CDTb oligomer) (Clostridioides difficile) (UniProt O32739); test: cryo-EM structure; CDTa without His-tag added to purified WT CDTb-pore at 3-fold molar excess, unbound CDTa not removed; 10 mM HEPES pH 7.5, 1 mM CaCl2, 0.003% LMNG; classes: di-heptamer, long pore, short pore
# [14] = target: the molecule itself; test: density gradient ultracentrifugation; CDTb after alpha-chymotrypsin, 0.03% LMNG 1 h 37 °C (LMNG after or before chymotrypsin); 10-30% glycerol, 50 mM HEPES pH 7.5, 100 mM NaCl, 1 mM CaCl2, 0.003% LMNG, 230,139 x g 16 h; A280 of fractions; protomers to heptamer and heptamer to di-heptamer
molecule,measurement,setting,value
CDTa (enzymatic A-component of the Clostridioides difficile binary toxin CDT) (enzyme),Kd,[1],28.6 nM
same,koff,[1],0.00413 s⁻¹
same,kon,[1],144000 M⁻¹ s⁻¹
same,Kd,[2],55.1 nM
same,koff,[2],0.00567 s⁻¹
same,kon,[2],103000 M⁻¹ s⁻¹
same,Kd,[3],26.2 nM
same,koff,[3],0.00304 s⁻¹
same,kon,[3],116000 M⁻¹ s⁻¹
same,Kd,[4],2.86 nM
same,koff,[4],0.000436 s⁻¹
same,Kd,[5],2.29 nM
same,koff,[5],0.000376 s⁻¹
same,kon,[5],164000 M⁻¹ s⁻¹
same,Kd,[6],2.69 nM
same,koff,[6],0.000326 s⁻¹
same,kon,[6],121000 M⁻¹ s⁻¹
same,Kd,[7],1.53 nM
same,koff,[7],0.000763 s⁻¹
same,kon,[7],498000 M⁻¹ s⁻¹
same,Kd,[8],2.27 nM
same,koff,[8],0.00132 s⁻¹
same,kon,[8],584000 M⁻¹ s⁻¹
same,Kd,[9],1.61 nM
same,koff,[9],0.000709 s⁻¹
same,kon,[9],441000 M⁻¹ s⁻¹
same,Kd,[10],3.27 nM
same,koff,[10],0.000619 s⁻¹
same,kon,[10],189000 M⁻¹ s⁻¹
same,Kd,[11],4.93 nM
same,koff,[11],0.00108 s⁻¹
same,kon,[11],220000 M⁻¹ s⁻¹
same,Kd,[12],1.89 nM
same,koff,[12],0.000521 s⁻¹
same,kon,[12],276000 M⁻¹ s⁻¹
same,stoichiometry N,[13],1
CDTa (enzymatic A-component of the Clostridioides difficile binary toxin CDT) (CDTa injected),kon,[4],152000 M⁻¹ s⁻¹
"CDTb-pore, wild type (chymotrypsin-activated CDTb oligomer) (complex, CDTb, Clostridioides difficile, UniProt O32739; cloned as amino acids 40-876 (without signal peptide); domains after cleavage are printed as 1' (W214-A296, domain 1 without the pro-peptide) to 4 (T617-D876); Heptameric pore; also found as a di-heptamer (14 chains); also called WT CDTb; NSS-loop) WEDEDLDTDNDNIPDSYERNGYTIKDLIAVKWEDSFAEQGYKKYVSNYLESNTAGDPYTDYEKASGSFDKAIKTEARDPLVAAYPIVGVGMEKLIISTNEHASTDQGKTVSRATTNSKTESNTAGVSVNVGYQNGFTANVTTNYSHTTDNSTAVQDSNGESWNTGLSINKGESAYINANVRYYNTGTAPMYKVTPTTNLVLDGDTLSTIKAQENQIGNNLSPGDTYPKKGLSPLALNTMDQFSSRLIPINYDQLKKLDAGKQIKLETTQVSGNFGTKNSSGQIVTEGNSWSDYISQIDSISASIILDTENESYERRVTAKNLQDPEDKTPELTIGEAIEKAFGATKKDGLLYFNDIPIDESCVELIFDDNTANKIKDSLKTLSDKKIYNVKLERGMNILIKTPTYFTNFDDYNNYPSTWSNVNTTNQDGLQGSANKLNGETKIKIPMSELKPYKRYVFSGYSKDPLTSNSIIVKIKAKEEKTDYLVPEQGYTKFSYEFETTEKDSSNIEITLIGSGTTYLDNLSITELNSTPEILDEPEVKIPTDQEIMDAHKIYFADLNFNPSTGNTYINGMYFAPTQTNKEALDYIQKYRVEATLQYSGFKDIGTKDKEMRNYLGDPNQPKTNYVNLRSYFTGGENIMTYKKLRIYAITPDDRELLVLSVD",stoichiometry N,[14],14 and 7
"CDTb F774L mutant (chymotrypsin-activated oligomer) (complex, CDTb, Clostridioides difficile, UniProt O32739; cloned as amino acids 40-876; domains after cleavage printed as W214-D876; Prepared by the same protocol as wild type, without LMNG pretreatment; source: E. coli BL21 Star (DE3), purified as wild type (Glutathione Sepharose 4B), alpha-chymotrypsin, LMNG) WEDEDLDTDNDNIPDSYERNGYTIKDLIAVKWEDSFAEQGYKKYVSNYLESNTAGDPYTDYEKASGSFDKAIKTEARDPLVAAYPIVGVGMEKLIISTNEHASTDQGKTVSRATTNSKTESNTAGVSVNVGYQNGFTANVTTNYSHTTDNSTAVQDSNGESWNTGLSINKGESAYINANVRYYNTGTAPMYKVTPTTNLVLDGDTLSTIKAQENQIGNNLSPGDTYPKKGLSPLALNTMDQFSSRLIPINYDQLKKLDAGKQIKLETTQVSGNFGTKNSSGQIVTEGNSWSDYISQIDSISASIILDTENESYERRVTAKNLQDPEDKTPELTIGEAIEKAFGATKKDGLLYFNDIPIDESCVELIFDDNTANKIKDSLKTLSDKKIYNVKLERGMNILIKTPTYFTNFDDYNNYPSTWSNVNTTNQDGLQGSANKLNGETKIKIPMSELKPYKRYVFSGYSKDPLTSNSIIVKIKAKEEKTDYLVPEQGYTKFSYEFETTEKDSSNIEITLIGSGTTYLDNLSITELNSTPEILDEPEVKIPTDQEIMDAHKIYFADLNLNPSTGNTYINGMYFAPTQTNKEALDYIQKYRVEATLQYSGFKDIGTKDKEMRNYLGDPNQPKTNYVNLRSYFTGGENIMTYKKLRIYAITPDDRELLVLSVD",stoichiometry N,[14],14 and 7
"CDTb F774G mutant (chymotrypsin-activated oligomer) (complex, CDTb, Clostridioides difficile, UniProt O32739; cloned as amino acids 40-876; domains after cleavage printed as W214-D876; Prepared by the same protocol as wild type, without LMNG pretreatment; source: E. coli BL21 Star (DE3), purified as wild type (Glutathione Sepharose 4B), alpha-chymotrypsin, LMNG) WEDEDLDTDNDNIPDSYERNGYTIKDLIAVKWEDSFAEQGYKKYVSNYLESNTAGDPYTDYEKASGSFDKAIKTEARDPLVAAYPIVGVGMEKLIISTNEHASTDQGKTVSRATTNSKTESNTAGVSVNVGYQNGFTANVTTNYSHTTDNSTAVQDSNGESWNTGLSINKGESAYINANVRYYNTGTAPMYKVTPTTNLVLDGDTLSTIKAQENQIGNNLSPGDTYPKKGLSPLALNTMDQFSSRLIPINYDQLKKLDAGKQIKLETTQVSGNFGTKNSSGQIVTEGNSWSDYISQIDSISASIILDTENESYERRVTAKNLQDPEDKTPELTIGEAIEKAFGATKKDGLLYFNDIPIDESCVELIFDDNTANKIKDSLKTLSDKKIYNVKLERGMNILIKTPTYFTNFDDYNNYPSTWSNVNTTNQDGLQGSANKLNGETKIKIPMSELKPYKRYVFSGYSKDPLTSNSIIVKIKAKEEKTDYLVPEQGYTKFSYEFETTEKDSSNIEITLIGSGTTYLDNLSITELNSTPEILDEPEVKIPTDQEIMDAHKIYFADLNGNPSTGNTYINGMYFAPTQTNKEALDYIQKYRVEATLQYSGFKDIGTKDKEMRNYLGDPNQPKTNYVNLRSYFTGGENIMTYKKLRIYAITPDDRELLVLSVD",stoichiometry N,[14],14 and 7
